{"source": "patent US20180335433A1", "about": "“COMPOSITIONS TARGETING PKC-THETA AND USES AND METHODS OF TREATING PKC-THETA PATHOLOGIES, ADVERSE IMMUNE RESPONSES AND DISEASES” (La Jolla Institute for Allergy and Immunology, priority 2011, published 2018)", "molecules": {"B1": {"name": "V3 domain: amino acid 282-379 of human PKCθ with N-terminal Myc tag, expressed from pMIG retroviral vector (protein)", "chain": "GINQKLMAEALAMIESTQQARCLRDTEQIFREGPVEIGLPCSIKNEARPPCLPTPGKREPQGISWESPLDEVDKMCHLPEPELNKERPSLQIKLKIED", "modifications": "left off: small tags and cut ends", "notes": "amino acid 282-379 of human PKCθ with N-terminal Myc tag, expressed from pMIG retroviral vector"}}, "key": {"[1]": {"tested_on": "B6 CD4+ T cells, Th2 differentiation", "assay": "In vitro Th2 differentiation of retrovirally transduced CD4+ T cells", "type": "cell-based, mouse", "details": "ectopic expression, Th2 differentiation conditions", "experimental": "(FIG. 6A) OT-II CD4^+ T cells were infected with retrovirus expressing Myc-tagged V3 domain, V3 mutated at P330/1/4/6A (V3-4PA), or PR motif-deleted V3 (V3-ΔPR). Infected cells (green) were harvested, stimulated, and fixed. Conjugates were stained with anti-Myc plus a secondary Alexa 555-coupled antibody (orange), and anti-PKCθ plus a secondary Alexa 647-coupled antibody (red). Cells were analyzed as in FIG. 1A. (FIG. 6B) Quantitative analysis of the results shown in (FIG. 6A) from 30-50 T-APC conjugates. ** p<0.05. (FIG. 6C) MCC-specific T hybridoma cells were cotransfected with indicated vector, together with RE/AP-Luc and β-Gal reporter plasmids. Cells were stimulated and analyzed as in FIG. 1C. […] Cytokine-producing cells were analyzed by intracellular staining 8 h after restimulation. […] Normalized luciferase activity was determined in triplicates. […]\nInvestigators have reported that the Th2 and Th17 immune responses are compromised in PKCθ^−/− mice, whereas the Th1 response remains relatively intact (Marsland, B. J. et al. J Exp Med 200, 181-189 (2004); Salek-Ardakani, S. et al. J Immunol 173, 6440-6447 (2004); Salek-Ardakani, S., et al. J Immunol 175, 7635-7641 (2005)). Therefore, ectopic expression of V3 was analyzed for inhibition of Th differentiation. […]"}, "[2]": {"tested_on": "Naïve CD4+ T cells from B6 mice, Th9 cells", "assay": "In vitro Th9 differentiation of retrovirally transduced CD4+ T cells", "type": "cell-based, mouse", "details": "Th9-polarizing conditions (IL-4+TGFβ), IL-9-producing cells", "experimental": "Naïve CD4^+ T cells from B6 mice stimulated with anti-CD3 plus anti-CD28 mAbs and differentiated in vitro under Th9-polarizing conditions (IL-4+TGFβ) were retrovirally transduced with empty pMIG vector, or with the indicated PKCθ V3 vectors. Transduced (GFP+) cells were sorted and IL-9-producing cells were analyzed by intracellular staining 8 h after restimulation. Cumulative data showing percentage of cytokine-producing. V3-4PA refers to mutation of 4 Pro residues in the Pro-rich motif to Ala and V3-DPR refers to deletion of the Pro-rich motif (ARPPCLPTP).\nTh9 cells have been reported to play an important role in promoting allergic diseases such as asthma (J. Asthma 48:115, 2011; Curr. Opin. Immunol. 24:1, 2012. These findings indicate that allergic disease such as asthma can be treated in accordance with the invention."}, "[3]": {"tested_on": "Th2-mediated lung inflammation", "assay": "Th2-mediated Ova-induced airway inflammation after adoptive transfer of transduced OT-II Th2 cells", "type": "in vivo, mouse", "details": "transferred Th2 cells, aerosolized Ova 3 consecutive days", "excerpt": "(FIG. 7A-7D) OT-II CD4^+ T cells stimulated with anti-CD3 plus anti-CD28 mAbs and differentiated in vitro under Th2 (FIG. 7A-7C) or Th1 (FIG. 7D, 7E)-polarizing conditions were retrovitrally transduced with the same PKCθ V3 vectors as in FIG. 6. Sorted GFP^+ populations were adoptively transferred into naïve B6 mice, which were challenged with aerosolized Ova for 3 consecutive days. BAL fluid were obtained 1 d post-challenge and analyzed for total mononuclear cell infiltration (FIG. 7A, 7D) and cytokine expression using IL-4 (FIG. 7B), IL-5 (FIG. 7C) and IFN-γ (FIG. 7E) ELISA.\nCD4^+ T cells from OT-II B6 mice were isolated and cultured with plate-bound anti-CD3 (5 μg/ml), soluble anti-CD28 (2.5 μg/ml) and IL-2 (100 U/ml) under Th1 or Th2 polarizing conditions. The cells were retrovirally infected on days 2-4 and cultured for an additional 3 days. GFP^+ cells were sorted, and 1×10^6 cells were injected intravenously into naïve WT B6 mice. One day later, mice received aerosolized Ova (5 mg/ml in 20 ml PBS) for 30 min, once a day for 3 consecutive days, using ultrasonic nebulization. Mice were sacrificed 24 h after the last challenge and assessed for lung inflammation. Collection of BAL fluid and determination of cytokine levels were carried out as described (Salek-Ardakani, S. et al. J Immunol 173, 6440-6447 (2004)).\nThe above findings were extended to an in vivo antigen-specific inflammatory response in an airway inflammation model, using a T cell adoptive transfer system. Mice receiving OT-II Th2 cells transduced with an empty vector developed an inflammatory response by comparison with PBS-challenged control mice, as evidenced by a significant increase in the number of infiltrating leukocytes in the bronchoalveolar lavages (BAL) fluid (FIG. 7a) and in the levels of signature Th2 cytokines, IL-4 (FIG. 7b) and IL-5 (FIG. 7c)."}}}
{"molecule": "B1", "values": [{"measurement": "inhibition of Th2 differentiation", "setting": "[1]", "result": "~75", "unit": "%"}, {"measurement": "effect on differentiation of Th9 cells", "setting": "[2]", "result": "interferes"}, {"measurement": "levels of Th2 cytokines (IL-4, IL-5) in BAL fluid", "setting": "[3]", "result": "to basal levels"}, {"measurement": "levels of infiltrating cells in BAL fluid", "setting": "[3]", "result": "to basal levels"}]}
